Data on 4 variants can be found in IntAct's records for PubMed 36931259.

The labels stand for the following.
B1: 14-3-3 protein sigma (Homo sapiens), P31947 (parent)
chain: MERASLIQKAKLAEQAERYEDMAAFMKGAVEKGEELSCEERNLLSVAYKNVVGGQRAAWRVLSSIEQKSNEEGSEEKGPEVREYREKVETELQGVCDTVLGLLDSHLIKEAGDAESRVFYLKMKGDYYRYLAEVATGDDKKRIIDSARSAYQEAMDISKKEMPPTNPIRLGLALNFSVFHYEIANSPEEAISLAKTTFDEAMADLHTLSEDSYKDSTLIMQLLRDNLTLWTADNAGEEGGEAPQEPQS
partner: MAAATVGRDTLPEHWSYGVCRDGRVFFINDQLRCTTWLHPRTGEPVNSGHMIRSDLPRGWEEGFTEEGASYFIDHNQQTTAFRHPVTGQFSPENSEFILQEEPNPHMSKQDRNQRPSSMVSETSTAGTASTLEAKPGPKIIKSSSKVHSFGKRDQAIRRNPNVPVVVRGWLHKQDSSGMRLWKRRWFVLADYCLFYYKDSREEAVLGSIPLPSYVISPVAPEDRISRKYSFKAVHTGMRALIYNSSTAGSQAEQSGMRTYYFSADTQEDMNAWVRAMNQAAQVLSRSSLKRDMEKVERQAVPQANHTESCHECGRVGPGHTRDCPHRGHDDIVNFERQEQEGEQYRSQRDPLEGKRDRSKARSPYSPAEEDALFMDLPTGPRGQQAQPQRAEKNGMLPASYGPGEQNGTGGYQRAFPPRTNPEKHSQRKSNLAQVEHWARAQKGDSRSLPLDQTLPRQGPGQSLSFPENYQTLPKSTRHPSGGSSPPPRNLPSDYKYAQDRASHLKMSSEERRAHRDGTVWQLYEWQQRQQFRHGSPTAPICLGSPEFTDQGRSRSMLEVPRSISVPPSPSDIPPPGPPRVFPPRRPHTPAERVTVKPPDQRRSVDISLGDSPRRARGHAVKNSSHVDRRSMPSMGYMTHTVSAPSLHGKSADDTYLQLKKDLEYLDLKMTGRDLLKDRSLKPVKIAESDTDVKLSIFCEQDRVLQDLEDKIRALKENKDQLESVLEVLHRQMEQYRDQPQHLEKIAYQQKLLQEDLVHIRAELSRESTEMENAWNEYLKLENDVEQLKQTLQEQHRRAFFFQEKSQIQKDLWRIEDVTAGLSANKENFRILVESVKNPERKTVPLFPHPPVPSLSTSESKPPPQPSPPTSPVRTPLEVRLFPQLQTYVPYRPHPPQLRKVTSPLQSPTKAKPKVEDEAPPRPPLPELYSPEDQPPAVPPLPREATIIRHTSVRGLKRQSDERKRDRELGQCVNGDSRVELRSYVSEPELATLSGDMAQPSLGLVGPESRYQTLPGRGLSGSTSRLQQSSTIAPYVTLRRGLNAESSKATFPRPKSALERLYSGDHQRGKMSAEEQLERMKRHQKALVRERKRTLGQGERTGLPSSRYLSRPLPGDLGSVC
B2: 14-3-3 protein sigma (Homo sapiens), P31947 (parent)
chain: B1 chain
partner: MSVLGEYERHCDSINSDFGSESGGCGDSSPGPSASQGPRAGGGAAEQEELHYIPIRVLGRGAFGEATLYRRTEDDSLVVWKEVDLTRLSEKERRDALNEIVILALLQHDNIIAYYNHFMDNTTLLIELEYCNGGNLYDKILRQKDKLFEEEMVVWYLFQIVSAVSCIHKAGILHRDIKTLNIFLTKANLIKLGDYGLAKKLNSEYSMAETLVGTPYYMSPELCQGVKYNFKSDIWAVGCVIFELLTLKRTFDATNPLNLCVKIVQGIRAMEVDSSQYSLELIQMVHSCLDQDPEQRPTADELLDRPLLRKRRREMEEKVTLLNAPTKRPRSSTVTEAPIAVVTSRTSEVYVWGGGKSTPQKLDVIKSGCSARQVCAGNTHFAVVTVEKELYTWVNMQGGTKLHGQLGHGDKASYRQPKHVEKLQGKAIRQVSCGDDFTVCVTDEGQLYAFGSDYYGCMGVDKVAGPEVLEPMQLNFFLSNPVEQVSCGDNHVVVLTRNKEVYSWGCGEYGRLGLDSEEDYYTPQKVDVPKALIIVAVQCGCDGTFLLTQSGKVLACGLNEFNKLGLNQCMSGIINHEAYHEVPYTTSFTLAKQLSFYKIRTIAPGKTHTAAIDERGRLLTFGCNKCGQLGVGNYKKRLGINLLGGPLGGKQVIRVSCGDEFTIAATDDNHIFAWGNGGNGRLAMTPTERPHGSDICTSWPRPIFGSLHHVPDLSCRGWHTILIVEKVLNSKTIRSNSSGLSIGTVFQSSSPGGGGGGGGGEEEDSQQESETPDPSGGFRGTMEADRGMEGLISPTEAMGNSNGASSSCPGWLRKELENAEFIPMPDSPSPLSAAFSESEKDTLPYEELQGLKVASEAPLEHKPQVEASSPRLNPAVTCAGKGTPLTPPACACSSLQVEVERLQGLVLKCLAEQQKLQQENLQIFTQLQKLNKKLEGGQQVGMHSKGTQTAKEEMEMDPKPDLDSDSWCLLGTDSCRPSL
B3: 14-3-3 protein sigma (Homo sapiens), P31947 (parent)
chain: B1 chain
partner: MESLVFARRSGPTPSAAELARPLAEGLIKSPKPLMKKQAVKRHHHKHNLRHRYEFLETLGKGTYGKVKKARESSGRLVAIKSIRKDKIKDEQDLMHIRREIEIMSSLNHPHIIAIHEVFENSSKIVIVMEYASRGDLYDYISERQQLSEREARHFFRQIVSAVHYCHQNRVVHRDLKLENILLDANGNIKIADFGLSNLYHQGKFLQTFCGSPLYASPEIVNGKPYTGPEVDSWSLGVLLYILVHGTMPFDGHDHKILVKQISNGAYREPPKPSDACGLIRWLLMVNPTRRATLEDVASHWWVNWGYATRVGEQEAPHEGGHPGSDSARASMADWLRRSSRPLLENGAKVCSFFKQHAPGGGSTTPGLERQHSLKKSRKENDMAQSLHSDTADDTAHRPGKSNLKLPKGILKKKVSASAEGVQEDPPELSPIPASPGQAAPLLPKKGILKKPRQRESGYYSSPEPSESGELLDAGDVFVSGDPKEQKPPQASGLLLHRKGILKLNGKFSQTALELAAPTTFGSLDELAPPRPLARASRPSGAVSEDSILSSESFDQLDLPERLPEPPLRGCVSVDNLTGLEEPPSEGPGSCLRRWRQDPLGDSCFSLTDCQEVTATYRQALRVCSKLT
B4: 14-3-3 protein sigma (Homo sapiens), P31947 (parent)
chain: B1 chain
partner: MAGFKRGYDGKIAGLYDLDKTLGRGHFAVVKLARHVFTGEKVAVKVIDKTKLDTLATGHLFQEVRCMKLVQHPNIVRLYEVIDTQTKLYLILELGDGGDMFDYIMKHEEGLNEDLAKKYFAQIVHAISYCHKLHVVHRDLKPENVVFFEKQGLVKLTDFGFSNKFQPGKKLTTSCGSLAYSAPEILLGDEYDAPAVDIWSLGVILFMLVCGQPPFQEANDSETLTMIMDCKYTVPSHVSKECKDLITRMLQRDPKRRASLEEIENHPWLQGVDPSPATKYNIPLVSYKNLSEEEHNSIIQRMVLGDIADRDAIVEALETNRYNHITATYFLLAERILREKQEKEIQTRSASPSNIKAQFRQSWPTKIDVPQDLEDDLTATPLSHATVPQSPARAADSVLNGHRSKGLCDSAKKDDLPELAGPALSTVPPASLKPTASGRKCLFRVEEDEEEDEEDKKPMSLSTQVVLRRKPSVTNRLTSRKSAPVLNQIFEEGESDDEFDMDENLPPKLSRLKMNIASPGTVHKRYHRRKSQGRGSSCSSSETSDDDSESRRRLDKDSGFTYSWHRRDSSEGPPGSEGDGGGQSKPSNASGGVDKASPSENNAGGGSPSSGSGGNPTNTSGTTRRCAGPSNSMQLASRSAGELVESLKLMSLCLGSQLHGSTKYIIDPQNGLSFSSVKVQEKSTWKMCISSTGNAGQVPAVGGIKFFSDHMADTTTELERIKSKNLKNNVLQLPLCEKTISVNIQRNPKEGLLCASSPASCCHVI

In one assay the parent is B1. The settings on record: with pkha7_human PLEKHA7, Q6IQ23.
Consider K49E;R56E;V178D, for which the “effect of a mutation on the interaction” value is on record as “decreasing interaction strength”.

The variants in the next assay derive from B2. Particulars: with nek9_human NEK9, Q8TD19.
Regarding K49E;R56E;V178D, the “effect of a mutation on the interaction” value is “decreasing interaction strength”.

Another assay covers variants of B3. The settings on record: with nuak2_human NUAK2, Q9H093.
With K49E;R56E;V178D, the “effect of a mutation on the interaction” value was “decreasing interaction strength”.

A further assay covers variants of B4. Particulars: with snrk_human SNRK.
Regarding K49E;R56E;V178D, the “effect of a mutation on the interaction” value is “decreasing interaction strength”.
